In experiment [1] the target is T1, recombinant hCD127 (Sino Biologicals, reference 10975-H08H) (human, UniProt P16871 21-239).
T1 construct: Bought recombinant protein; In the Blitz assay the protein is said to be captured by an Fc fragment, and a second catalogue number (11612-H08H) is printed; also called human CD127 recombinant protein; recombinant human CD127
T1 chain: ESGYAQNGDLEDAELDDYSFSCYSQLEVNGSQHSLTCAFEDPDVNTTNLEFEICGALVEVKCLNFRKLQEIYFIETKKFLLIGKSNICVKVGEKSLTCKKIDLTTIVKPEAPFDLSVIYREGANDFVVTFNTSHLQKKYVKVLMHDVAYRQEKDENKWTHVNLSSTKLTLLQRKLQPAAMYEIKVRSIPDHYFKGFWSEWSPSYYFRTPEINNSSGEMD
The experiment can be described thus: method not stated.

For experiment [2], the target named is T2, recombinant hCD127 (Sino Biologicals, reference 10975-H08H) (human) (UniProt P16871).
T2 sequence: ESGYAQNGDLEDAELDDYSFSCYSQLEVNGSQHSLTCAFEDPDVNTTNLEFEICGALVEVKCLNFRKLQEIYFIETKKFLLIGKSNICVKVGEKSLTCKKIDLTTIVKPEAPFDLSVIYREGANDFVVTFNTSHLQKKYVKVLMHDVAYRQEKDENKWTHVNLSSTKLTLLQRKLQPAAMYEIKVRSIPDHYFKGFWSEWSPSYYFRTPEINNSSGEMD
As to the kind of experiment: method not stated.

Experiment [3] deals with T1, recombinant hCD127 (Sino Biologicals, …). The experiment can be described thus: Blitz (BLI), hCD127 captured on anti-human IgG Fc (AHC) biosensor, antibody at 20 µg/mL. The method, then:
Recombinant hCD127 (Sino Biologicals, Beijing, China; reference 10975-H08H)/recombinant protein (Sino Biological Cat: 11612-H08H) was immobilized at 50 μg/ml by Fc fragment into anti-human IgG Fc (AHC) biosensor (Forte Bio, 18-5063) for 30 seconds. Then, anti-CD127 antibodies were added at 20 μg/mL (saturating concentration) for an association period of 120 seconds, followed by a dissociation period of anti-CD127 antibody in kinetics buffer for 120 seconds. Data analysis was made with the Blitz pro 1.2 software, which calculated association constant (ka) and dissociation constant (kd) and determined the affinity constant KD […].

Experiment [4] has the same target. The experiment can be described thus: ELISA, hCD127 immobilized on plastic at 1 µg/ml (given as ED50). The method, then:
(§1) For activity ELISA assay, recombinant hCD127 (Sino Biologicals, Beijing, China; reference 10975-H08H) was immobilized on plastic at 1 μg/ml and dilutions of anti-CD127 antibody were added to measure binding.

Experiment [5] concerns the target T3, human CD127 (IL-7Rα) on human PBMC (human, UniProt P16871 21-459).
T3 chain: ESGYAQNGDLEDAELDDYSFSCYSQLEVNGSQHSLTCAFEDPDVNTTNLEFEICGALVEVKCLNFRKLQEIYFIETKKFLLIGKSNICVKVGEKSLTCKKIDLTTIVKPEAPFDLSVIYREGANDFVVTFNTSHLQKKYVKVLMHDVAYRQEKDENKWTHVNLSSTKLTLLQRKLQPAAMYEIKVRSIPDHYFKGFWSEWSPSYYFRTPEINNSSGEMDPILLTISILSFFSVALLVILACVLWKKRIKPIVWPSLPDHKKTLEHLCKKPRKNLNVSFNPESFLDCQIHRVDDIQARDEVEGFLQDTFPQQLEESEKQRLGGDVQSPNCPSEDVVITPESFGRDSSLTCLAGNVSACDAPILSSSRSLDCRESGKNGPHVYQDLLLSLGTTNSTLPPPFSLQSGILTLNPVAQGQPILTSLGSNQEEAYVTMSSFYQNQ
As to the kind of experiment: cell-based or functional assay.

Experiment [6] has as its target T1, recombinant hCD127 (Sino Biologicals, …). The experiment can be described thus: ELISA on CD127 after storage of the antibody 7 days at 4° C. (given as ED50). The method, then: as §1
(§2) Stability of the antibodies was studies by incubating the antibodies for 7, 14, or 30 days at 4° C., 25° C. and 42° C.

Experiment [7] has the same target. The experiment can be described thus: ELISA on CD127 after storage of the antibody 14 days at 25° C. (given as ED50). The protocol: as §1, §2
For experiment [8] the target is unchanged. As to the kind of experiment: ELISA on CD127 after storage of the antibody 7 days at 25° C. (given as ED50). The protocol: as §1, §2
Experiment [9] shares this target. The experiment can be described thus: ELISA on CD127 after storage of the antibody 14 days at 4° C. (given as ED50). The protocol:
as §1, §2

The target is the same in experiment [10]. The experiment can be described thus: ELISA on CD127 after storage of the antibody 30 days at 4° C. (given as ED50). The protocol:
as §1, §2

Experiment [11] shares this target. The experiment can be described thus: ELISA on CD127 after storage of the antibody 30 days at 25° C. (given as ED50). The method, then:
as §1, §2

Experiment [12] shares this target. The experiment can be described thus: ELISA on CD127 after storage of the antibody 7 days at 42° C. (given as ED50). The method, then:
as §1, §2

For experiment [13] the target is unchanged. The experiment can be described thus: ELISA on CD127 after storage of the antibody 14 days at 42° C. (given as ED50). The method, then: as §1, §2
The target is the same in experiment [14]. The experiment can be described thus: ELISA on CD127 after storage of the antibody 30 days at 42° C. (given as ED50). The method, then: as §1, §2

B1: 1A11 (antibody, V domains shown)
VH: EVQLQQSGPELLKPGASMKISCKASGYSFTGYTMNWVKQSHGKNLEWIGLINPYNGVTSYNQKFKGKATLTVAKSSSTAYMELLSLTSEDSAVYYCARGDGNYWYFDVWGAGTTVTVSS
VL: EIVLTQSPAITAASLGQKVTITCSASSSVTYMHWYQQKSGTSPKPWIYEISKLASGVPVRFSGSGSGTSYSLTISSMEAEDAAIYYCQEWNYPYTFGGGTKLEIK
Take B1: the Kd in experiment [1] is 0.6 nM.

B2: MD707-13 (antibody, from another filing, human IgG4, V domains shown)
VH: QLKESGPGLVQPSQTLSLTCTVSGLSLPNNNIAWIRQSPGKGLEWMGVIWSNGDTDYNSAIRSRLSISRDSSKSQVFLRMNSLQSEDTAMYFCAREGMTTLDYWGQGVVVTVSS
VL: EIVLTQSPTTMAASPGEKVTITCRASSSVSYMHWFQQKSGSSPKPWIYDSSDLASGVPDRFSGSGSGTSYSLTISSMEAEDAATYYCLQRSSYPRTFGGGTKLELKR
Turning to B2, in [2], the Kd worked out at 0.5 nM.

B3: N13B2-h3 (antibody, V domains shown)
VH: QVQLVESGGGLVKPGGSLRLSCAVSGFTLSDYYMAWIRQAPGKGLEWVSTISASGLRTYYPDSVKGRFTISRDNAKNSLYLQMNSLRAEDTAVYYCARPLSAHYGFNYFDYWGQGTLVTVSS
VL: EIVMTQSPATLSVSPGERATLSCRTSEDIYQGLAWYQQKPGQAPRLLIYSANTLHIGIPARFSGSGSGTEFTLTISSLQSEDFAVYYCQQYYDYPLAFGGGTKVEIKR
notes: also called humanized N13B2 of WO 2015/189302
On to B3, for which, in [3], the Kd worked out at 2.33 nM, the koff is 0.00267 s⁻¹ and the kon was determined as 1.15e+06 M⁻¹ s⁻¹. In addition, the EC50 in [4] stood at 0.0168 µg/mL. In experiment [5], the “IC50-MFI, inhibition of IL7-induced STAT5 phosphorylation in CD3+ human PBMC” value (from here on “IC50-MFI, inhibition”) was 0.0215 µg/mL.

B4: N13B2-hVL3 (antibody, V domains shown)
VH: QVQLVESGGGLVKPGGSLRLSCAVSGFTLSDYYMAWIRQAPGKGLEWVSTISASGLRTYYPDSVKGRFTISRDNAKNSLYLQMNSLRAEDTAVYYCARPLSAHYGFNYFDYWGQGTLVTVSS
VL: DIQMTQSPSSLSASVGDRVTITCRTSEDIYQGLAWYQQKPGKAPKLLVYSANTLHIGVPSRFSGSGSGTDYTLTISSLQPEDFATYFCQQYYDYPLAFGGGTKVEIKR
For B4, the “IC50-MFI, inhibition” value in [5] turned out to be 0.0272 µg/mL.

B5: N13B2-hVL6 (antibody, V domains shown)
VH: QVQLVESGGGLVKPGGSLRLSCAVSGFTLSDYYMAWIRQAPGKGLEWVSTISASGLRTYYPDSVKGRFTISRDNAKNSLYLQMNSLRAEDTAVYYCARPLSAHYGFNYFDYWGQGTLVTVSS
VL: DIQMTQSPSSLSASVGDRVTITCRTSEDIYQGLAWYQQKPGKAPKLLLYSANTLHIGVPSRFSGSGSGTDYTLTISSLQPEDFATYYCQQYYDYPLAFGGGTKVEIKR
notes: also called N13B2-h3VL6; N13B2-VL6-V48L-F87Y
As to B5, the concentration for a half-maximal effect (EC50) in experiment [6] worked out at 0.0553 µg/mL; in experiment [7], 0.0526 µg/mL; in experiment [8], 0.0478 µg/mL; in [9] it was 0.0628 µg/mL; in experiment [4] it was 0.0095 µg/mL; in experiment [10], 0.047 µg/mL. Besides, the EC50 was determined as 0.0402 µg/mL in [11], 0.0562 µg/mL in experiment [12], 0.0406 µg/mL in [13] and 0.0587 µg/mL in experiment [14]. Moreover, the Kd in experiment [1] was determined as 0.2 nM; in [3], 2.53 nM. In experiment [3], the koff came out at 0.00266 s⁻¹. For the same molecule, the kon in experiment [3] amounted to 1.05e+06 M⁻¹ s⁻¹. In addition, in experiment [5], the “IC50-MFI, inhibition” value came to 0.0168 µg/mL.

B6: N13B2-hVL4 (antibody, V domains shown)
VH: QVQLVESGGGLVKPGGSLRLSCAVSGFTLSDYYMAWIRQAPGKGLEWVSTISASGLRTYYPDSVKGRFTISRDNAKNSLYLQMNSLRAEDTAVYYCARPLSAHYGFNYFDYWGQGTLVTVSS
VL: DIQMTQSPSSLSASVGDRVTITCRTSEDIYQGLAWYQQKPGKAPKLLLYSANTLHIGVPSRFSGSGSGTDYTLTISSLQPEDFATYFCQQYYDYPLAFGGGTKVEIKR
notes: also called N13B2-VL4-V48L
B6: in experiment [3], the Kd was 2.71 nM, the koff was determined as 0.00281 s⁻¹ and the kon is 1.04e+06 M⁻¹ s⁻¹. The EC50 in experiment [4] was 0.0126 µg/mL. For the same molecule, the “IC50-MFI, inhibition” value in experiment [5] was found to be 0.0161 µg/mL.

B7: N13B2-hVL5 (antibody, V domains shown)
VH: QVQLVESGGGLVKPGGSLRLSCAVSGFTLSDYYMAWIRQAPGKGLEWVSTISASGLRTYYPDSVKGRFTISRDNAKNSLYLQMNSLRAEDTAVYYCARPLSAHYGFNYFDYWGQGTLVTVSS
VL: DIQMTQSPSSLSASVGDRVTITCRTSEDIYQGLAWYQQKPGKAPKLLVYSANTLHIGVPSRFSGSGSGTDYTLTISSLQPEDFATYYCQQYYDYPLAFGGGTKVEIKR
notes: also called N13B2-VL5-F87Y
In the case of B7, in [3], the Kd worked out at 2.63 nM, the koff amounted to 0.00266 s⁻¹ and the kon is 1.01e+06 M⁻¹ s⁻¹. In addition, the EC50 in [4] was 0.0148 µg/mL. In addition, in experiment [5], the “IC50-MFI, inhibition” value came to 0.0273 µg/mL.

The values above are taken from patent publication US20190375844A1 (OSE IMMUNOTHERAPEUTICS, published 2019).
